Test results published in US20110189154.
Substitutions are numbered along the chain they refer to.

T1: Tsa1 (S. cerevisiae 2-Cys peroxyredoxin), P34760
T1 chain: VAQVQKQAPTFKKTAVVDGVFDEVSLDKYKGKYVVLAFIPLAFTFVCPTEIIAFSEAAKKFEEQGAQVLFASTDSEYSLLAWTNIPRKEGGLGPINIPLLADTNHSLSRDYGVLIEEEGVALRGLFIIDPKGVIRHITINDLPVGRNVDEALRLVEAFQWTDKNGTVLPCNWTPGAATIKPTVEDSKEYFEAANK

B1: Srx1^Cys106S (S. cerevisiae Srx1 with Cys106 changed to serine) (protein)
chain: MSLQSNSVKPTEIPLSEIRRPLAPVLDPQKIDAMVATMKGIPTASKTCSLEQAEAAASAGELPPVDVLGVRVKGQTLYYAFGGCHRLQAYDRRARETQNAAFPVRSRVLPATPRQIRMYLGSSLDIE
B2: Srx1^Cys48S (S. cerevisiae Srx1 with Cys48 changed to serine) (protein)
chain: B1 chain with C48S, S106C

Biological target: T1, Tsa1 (S. cerevisiae 2-Cys …)

Protein | reduction of the Cys-SO2H form of Tsa1
B1 | the other cysteine mutants have no effect for Srx1^Cys106S
B2 | a minor effect for Srx1^Cys48S
